Experimental data: paper PMC6488583

Columns and labels:
[1] = biological target: full-length human fibronectin (UniProt P02751); assay: SPR; Biacore T200; FN amine-coupled to a CM5 chip (1000 RU and 5000 RU); α^UpaB 0.8–100 µM injected; 25 °C, PBS-T (PBS pH 7.4, 0.05% Tween 20); steady-state affinity model; apparent
[2] = biological target: full-length human fibronectin (UniProt P02751); assay: ELISA; details: parent: est. 0.29; read off a plot

Chain of full-length human fibronectin (P02751 32-2477): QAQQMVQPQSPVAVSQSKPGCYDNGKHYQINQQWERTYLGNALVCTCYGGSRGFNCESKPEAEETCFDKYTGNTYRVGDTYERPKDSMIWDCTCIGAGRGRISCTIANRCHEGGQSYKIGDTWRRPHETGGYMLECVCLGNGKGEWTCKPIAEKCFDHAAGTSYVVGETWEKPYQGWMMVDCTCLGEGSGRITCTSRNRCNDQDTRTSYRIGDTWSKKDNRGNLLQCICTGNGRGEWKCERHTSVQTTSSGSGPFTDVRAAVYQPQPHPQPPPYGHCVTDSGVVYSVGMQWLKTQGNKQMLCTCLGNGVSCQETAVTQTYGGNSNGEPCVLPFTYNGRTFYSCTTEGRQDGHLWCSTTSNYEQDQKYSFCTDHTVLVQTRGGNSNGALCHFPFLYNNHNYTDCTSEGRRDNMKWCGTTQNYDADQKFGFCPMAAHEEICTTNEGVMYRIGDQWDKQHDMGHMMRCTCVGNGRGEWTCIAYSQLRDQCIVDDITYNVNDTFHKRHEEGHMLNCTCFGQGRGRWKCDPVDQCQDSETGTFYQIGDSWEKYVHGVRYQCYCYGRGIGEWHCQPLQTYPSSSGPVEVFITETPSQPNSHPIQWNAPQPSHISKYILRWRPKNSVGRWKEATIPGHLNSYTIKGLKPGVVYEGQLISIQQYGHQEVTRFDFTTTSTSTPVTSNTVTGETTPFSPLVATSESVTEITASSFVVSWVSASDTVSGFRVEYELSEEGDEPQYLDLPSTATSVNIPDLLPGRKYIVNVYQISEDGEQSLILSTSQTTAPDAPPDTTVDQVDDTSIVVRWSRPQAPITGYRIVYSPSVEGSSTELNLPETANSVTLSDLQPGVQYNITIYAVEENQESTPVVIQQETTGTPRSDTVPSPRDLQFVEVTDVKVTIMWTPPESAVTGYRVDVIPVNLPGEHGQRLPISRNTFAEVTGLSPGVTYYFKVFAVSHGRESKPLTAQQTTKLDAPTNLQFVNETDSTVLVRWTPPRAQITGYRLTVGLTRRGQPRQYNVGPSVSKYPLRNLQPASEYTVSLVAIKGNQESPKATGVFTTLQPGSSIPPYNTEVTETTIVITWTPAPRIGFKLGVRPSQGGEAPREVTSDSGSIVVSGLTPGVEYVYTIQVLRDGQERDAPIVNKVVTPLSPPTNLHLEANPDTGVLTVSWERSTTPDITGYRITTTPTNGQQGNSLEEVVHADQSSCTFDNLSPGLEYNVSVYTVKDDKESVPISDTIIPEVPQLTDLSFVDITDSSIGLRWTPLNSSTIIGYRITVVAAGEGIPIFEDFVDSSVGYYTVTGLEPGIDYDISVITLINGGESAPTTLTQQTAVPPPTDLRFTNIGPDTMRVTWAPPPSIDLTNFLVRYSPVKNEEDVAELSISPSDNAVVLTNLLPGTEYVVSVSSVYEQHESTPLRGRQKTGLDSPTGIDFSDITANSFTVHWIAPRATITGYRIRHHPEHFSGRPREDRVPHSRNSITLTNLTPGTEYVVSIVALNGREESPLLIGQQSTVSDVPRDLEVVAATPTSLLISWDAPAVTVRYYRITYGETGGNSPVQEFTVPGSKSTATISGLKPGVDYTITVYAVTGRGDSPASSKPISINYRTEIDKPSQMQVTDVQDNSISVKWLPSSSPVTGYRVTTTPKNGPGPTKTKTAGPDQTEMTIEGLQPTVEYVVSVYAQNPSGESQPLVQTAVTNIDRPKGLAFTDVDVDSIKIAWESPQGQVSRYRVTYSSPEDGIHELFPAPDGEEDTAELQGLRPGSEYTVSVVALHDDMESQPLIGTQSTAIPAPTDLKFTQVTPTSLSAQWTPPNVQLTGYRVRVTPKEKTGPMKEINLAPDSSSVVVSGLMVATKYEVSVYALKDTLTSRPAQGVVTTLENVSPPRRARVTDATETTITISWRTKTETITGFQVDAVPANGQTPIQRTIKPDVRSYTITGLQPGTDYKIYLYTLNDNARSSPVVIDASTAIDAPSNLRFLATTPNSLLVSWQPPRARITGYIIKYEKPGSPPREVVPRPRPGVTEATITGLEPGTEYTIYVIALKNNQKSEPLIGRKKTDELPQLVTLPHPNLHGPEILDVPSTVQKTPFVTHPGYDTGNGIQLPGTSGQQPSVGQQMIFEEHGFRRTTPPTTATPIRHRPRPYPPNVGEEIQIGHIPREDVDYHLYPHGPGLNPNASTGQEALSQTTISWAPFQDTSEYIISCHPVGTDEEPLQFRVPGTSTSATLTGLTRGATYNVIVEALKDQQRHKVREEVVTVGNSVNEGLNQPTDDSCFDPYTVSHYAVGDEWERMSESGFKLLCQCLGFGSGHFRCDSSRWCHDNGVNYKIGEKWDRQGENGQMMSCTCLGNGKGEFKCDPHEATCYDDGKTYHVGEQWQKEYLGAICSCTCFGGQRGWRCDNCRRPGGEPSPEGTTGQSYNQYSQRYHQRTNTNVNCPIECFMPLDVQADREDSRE

Substance	Kd [1] [µM]	response (Absorbance at 405 nm) [2]
UpaB α-domain (α^UpaB), residues 38–500, from UPEC CFT073 (domain or fragment; other documents disagree on this pair)	45.2	–
UpaB α-domain (α^UpaB), residues 38–500, from UPEC CFT073 E103A; D138A; E165A; E226A	–	0.27
UpaB α-domain (α^UpaB), residues 38–500, from UPEC CFT073 E165A; N189A; Q197A; N200A; Q203A; K256A; N316A	–	0.33
UpaB α-domain (α^UpaB), residues 38–500, from UPEC CFT073 F101A; Y130A; Y187A; F195A; L201G; L202G; Y260A	–	0.21
UpaB α-domain (α^UpaB), residues 38–500, from UPEC CFT073 N116A; D119A; N146A; N175A; D217A; K245A; D246A; D281A; R310A; D336A	–	0.039
